Reference: publication doi:10.1101/2024.09.20.612365, “Preventing Inappropriate Signals Pre- and Post-Ligand Perception by a Toggle-Switch Mechanism of ERECTA” (bioRxiv, 2024)
Changes are numbered by the printed parent chain. Numbers in names are those of the source. Like-named read-outs stand apart in the source and are kept apart here. Each block holds one molecule with its values, some of them ahead of it.

T1: GST-PUB30 (plant U-box E3 ligase PUB30) (Arabidopsis, UniProt Q058P4 1-448)
T1 construct: U-box E3 ubiquitin ligase PUB30, Arabidopsis; source: recombinantly purified
T1 sequence (looked up): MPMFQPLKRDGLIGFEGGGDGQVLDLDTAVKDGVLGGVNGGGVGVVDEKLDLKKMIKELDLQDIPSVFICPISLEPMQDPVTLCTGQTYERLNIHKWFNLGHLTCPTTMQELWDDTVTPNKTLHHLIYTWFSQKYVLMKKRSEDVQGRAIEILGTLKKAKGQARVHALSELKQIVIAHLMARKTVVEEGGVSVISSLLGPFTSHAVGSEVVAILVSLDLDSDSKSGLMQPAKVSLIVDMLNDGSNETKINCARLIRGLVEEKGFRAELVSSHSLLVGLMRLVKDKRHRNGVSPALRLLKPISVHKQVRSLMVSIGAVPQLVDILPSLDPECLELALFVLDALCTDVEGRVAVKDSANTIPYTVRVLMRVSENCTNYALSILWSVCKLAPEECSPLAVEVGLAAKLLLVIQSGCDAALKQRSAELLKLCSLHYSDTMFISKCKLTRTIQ

T2: MBP-ER_CD_(T/S8E), phosphomimetic version (Arabidopsis, UniProt Q42371 602-976, Thr947 (T/S8E) | Ser950 (T/S8E) | Ser954 (T/S8E) | Ser955 (T/S8E) | Ser957 …)
T2 sequence: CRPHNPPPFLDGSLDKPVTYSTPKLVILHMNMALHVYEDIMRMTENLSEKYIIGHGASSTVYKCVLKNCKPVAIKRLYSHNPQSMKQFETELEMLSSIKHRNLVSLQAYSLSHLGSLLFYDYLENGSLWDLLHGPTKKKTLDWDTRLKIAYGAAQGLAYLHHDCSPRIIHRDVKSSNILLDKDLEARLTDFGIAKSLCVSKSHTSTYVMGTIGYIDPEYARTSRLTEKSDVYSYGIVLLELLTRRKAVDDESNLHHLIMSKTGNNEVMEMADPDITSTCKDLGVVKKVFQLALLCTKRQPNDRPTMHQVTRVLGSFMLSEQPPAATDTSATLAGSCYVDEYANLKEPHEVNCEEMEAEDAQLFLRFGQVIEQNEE

T3: MBP-ER_CD_(T/S8A), phosphonull version (Arabidopsis, UniProt Q42371 602-976, Thr947 (T/S8A) | Ser950 (T/S8A) | Ser954 (T/S8A) | Ser955 (T/S8A) | Ser957 …)
T3 sequence: T2 sequence with E346A, E349A, E353A, E354A, E356A, E358A, E371A, E374A

T4: MBP-ER_CD_(T/S8A), phosphonull version (Arabidopsis, UniProt Q42371 602-976, Thr947 (T/S8A) | Ser950 (T/S8A) | Ser954 (T/S8A) | Ser955 (T/S8A) | Ser957 …)
T4 construct: ERECTA (ER), Arabidopsis; The eight sites: six detected (Thr947, Ser950, Ser954, Ser955, Ser957, Ser972); source: recombinantly purified
T4 sequence (looked up): T2 sequence with E346A, E349A, E353A, E354A, E356A, E358A, E371A, E374A

B1: GST-PUB30 (plant U-box E3 ligase PUB30) (enzyme)
chain: T1 sequence (looked up)
B2: MBP-fused full-length ER cytoplasmic domain (MBP-ER_CD) (domain or fragment, Arabidopsis, UniProt Q42371 602-976, looked up)
chain: T2 sequence with E346T, E349S, E353S, E354S, E356S, E358S, E371S, E374S
notes: ERECTA (ER) LRR receptor kinase, Arabidopsis; full-length cytoplasmic domain (juxtamembrane domain, kinase domain, C-terminal tail); source: expressed and purified (recombinantly purified)
B3: GST-BKI1 (BRI1 KINASE INHIBITOR 1) (natural protein, Arabidopsis, UniProt Q9FMZ0 1-337, looked up)
chain: METNLQQVKNSSQTFSEKQNPKQEASPSPISSTCSSPSHDFSFTISLQPLSSSSKHISPTLRSPSKTTSSYQQTDPFAVDLSPADEIFFHGHLLPLHLLSHLPVSPRTSTGSYNDGFTLPVKDILPDQPTNNNNNTENAITNISTEAKDDNTEDKAEGEIRVKTKPIKSFSLFGLSKWRKGFESNEREQEQQQQKIKKPMSLDLSHAVKKYIRMLFQKRGNGTQFWNRRQTSSYSFSSSLMGPNGNSKTMINGSYNKRDLIRGRRGELFSAPASMRTSPTNSGHLRVSTAGLSSSSGSTSSSSSDSTMEELQAAIQAAIAHCKNSSAVDRDDKVKDS
notes: source: recombinantly purified
B4: MBP-ER_CD_(T/S8E), phosphomimetic version (domain or fragment, Arabidopsis, UniProt Q42371 602-976, looked up)
chain: T2 sequence
notes: ERECTA (ER), Arabidopsis; source: recombinantly purified

Assays:
[1] = target: GST-BKI1 (BRI1 KINASE INHIBITOR 1) (Arabidopsis) (UniProt Q9FMZ0); experiment: BLI; recombinantly purified GST-BKI1 or GST-PUB30 and MBP-ER_CD variants at seven concentrations (156.25, 312.5, 625, 1,250, 2,500, 5,000 and 10,000 nM); representative of three independent experiments
[2] = target: T1, GST-PUB30 (plant U-box E3 ligase PUB30); experiment: as above
[3] = target: T2, MBP-ER_CD_(T/S8E), phosphomimetic …; experiment: BLI
[4] = target: T3, MBP-ER_CD_(T/S8A), phosphonull version; experiment: BLI
[5] = target: B2; experiment: BLI; recombinantly purified GST-BKI1 or GST-PUB30 and MBP-ER_CD variants at seven concentrations (156.25, 312.5, 625, 1,250, 2,500, 5,000 and 10,000 nM); representative of three independent experiments; conditions: both partners purified
[6] = target: T4, MBP-ER_CD_(T/S8A), phosphonull version; experiment: as above; conditions: both partners purified

Kd [1]: 47.7 µM | Kd [2]: 0.805 µM
Molecule: MBP-ER_CD_(ΔCTα-Helix) (domain or fragment)

Molecule: B1
Kd [3]: 0.194 µM | Kd [4]: 9.5 µM

Molecule: B2
Kd ([2]; both partners purified): 0.393 ± 0.048 µM

Molecule: B3
Kd [3]: 18 µM | Kd [4]: 3.8 µM | Kd [5]: 3.7 ± 0.7 µM | binding result [6]: binds

Molecule: B4
binding result ([2]; both partners purified): binds
